# Assay results reported in the supplement of paper PMC10567573.
# B1: SCNN1D (parent)
# chain: IRVMVHGRNHTPFLGHHSFSVRPG
# Variants of: B1
# Experiment: protein stability index of a GFP-peptide fusion (GPS, HEK-293T) (PSI 1-6); higher = more stable
# Conditions: c terminus: a fixed tail appended
# 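Note: lentivirally expressed fusions sorted by FACS into six bins by GFP to DsRed ratio, PSI derived from sequencing read proportions per bin multiplied by bin number.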
row,Variant,protein stability index
1,IRVMVHGRMHTPFLGHHSFSVRPG,5.71
2,IRVMVHGRNHTPFNGHHSFSVRPG,2.43
3,IRVMVHGRNHTPFWGHHSFSVRPG,2.98
4,IRVMVHGRNHTPFEGHHSFSVRPG,1.8
5,IRVMVHGRNHTPFYGHHSFSVRPG,2.42
6,IRVMVHGRNHTPFIGHHSFSVRPG,2.76
7,IRVMVHGRNHTPFHGHHSFSVRPG,2.23
8,IRVMVHGRNHTPFQGHHSFSVRPG,2.67
9,IRTMVHGRNHTPFLGHHSFSVRPG,2.2
10,IRNMVHGRNHTPFLGHHSFSVRPG,1.85
11,IRWMVHGRNHTPFLGHHSFSVRPG,1.6
12,IRYMVHGRNHTPFLGHHSFSVRPG,2.43
13,IRLMVHGRNHTPFLGHHSFSVRPG,2.11
14,IRQMVHGRNHTPFLGHHSFSVRPG,1.91
15,IRSMVHGRNHTPFLGHHSFSVRPG,2.13
16,IRFMVHGRNHTPFLGHHSFSVRPG,1.93
17,IRGMVHGRNHTPFLGHHSFSVRPG,2.33
18,IRDMVHGRNHTPFLGHHSFSVRPG,2.17
19,IRHMVHGRNHTPFLGHHSFSVRPG,2.07
20,IRRMVHGRNHTPFLGHHSFSVRPG,2.13
21,IRKMVHGRNHTPFLGHHSFSVRPG,3.58
22,IRAMVHGRNHTPFLGHHSFSVRPG,2.42
23,IRPMVHGRNHTPFLGHHSFSVRPG,2.75
24,IRVMVHGRNLTPFLGHHSFSVRPG,3.2

row,Variant,protein stability index
1,IRVMVHGRNETPFLGHHSFSVRPG,1.94
2,IRVMVHGRNCTPFLGHHSFSVRPG,2.19
3,IRVMVHGRNVTPFLGHHSFSVRPG,3.51
4,IRVMVHGRNMTPFLGHHSFSVRPG,2.15
5,IRVMVHGRNHTPFLGHHSTSVRPG,2.35
6,IRVMVHGRNHTPFLGHHSNSVRPG,1.09
7,IRVMVHGRNHTPFLGHHSPSVRPG,1.01
8,IRVMVHGRNHTPFLGHHSHSVRPG,1.91
9,IRVMVHGRNHTPFLGHHSRSVRPG,1.09
10,IRVMVHGRNHTPFLGHHSDSVRPG,1.53
11,IRVMVHGRNHTPFLGHHSKSVRPG,1.77
12,IRVMVHGRNHTPFLGHHSQSVRPG,1.77
13,IRVMVHGRNHTPFLGHHSGSVRPG,1.52
14,IRVMVHGRNHTPFLGHHSISVRPG,2.41
15,IRVMVHGRNHTPFLGHHSMSVRPG,1.87
16,IRVMVHGRNHTPFLGHHPFSVRPG,2.79
17,IRVMVHGRNHTPFLGHHDFSVRPG,2.01
18,IRVMVHGRNHTPFLGHHIFSVRPG,5.22
19,IRVMVHGRNHTPFLGHHRFSVRPG,4.09
20,IRVMVHGRNHTPFLGHHWFSVRPG,4.89
21,IRVWVHGRNHTPFLGHHSFSVRPG,2.32
22,IRVKVHGRNHTPFLGHHSFSVRPG,1.72
23,IRVNVHGRNHTPFLGHHSFSVRPG,2.92
24,IRVAVHGRNHTPFLGHHSFSVRPG,1.92

row,Variant,protein stability index
1,IRVGVHGRNHTPFLGHHSFSVRPG,1.5
2,IRVPVHGRNHTPFLGHHSFSVRPG,3.2
3,IRVDVHGRNHTPFLGHHSFSVRPG,1.88
4,IRVMVHGRNHTPFLGHHSFSNRPG,1.49
5,IRVMVHGRNHTPFLGHHSFSSRPG,1.87
6,IRVMVHGRNHTPFLGHHSFSDRPG,1.42
7,IRVMVHGRNHTPFLGHHSFSHRPG,3.02
8,IRVMVHGRNHTPFLGHHSFSRRPG,2.78
9,IRVMVHGRNHTPFLGHHSFSFRPG,2.91
10,IRVMVHGRNHTPFLGHHSFSERPG,1.41
11,IRVMVHGRNHTPFLGHHSFSARPG,1.8
12,IRVMVHGRNHTPFLGHHSFSLRPG,2.48
13,IRVMVHGRNHTPFLGHRSFSVRPG,2.73
14,IRVMVHGRNHTPFLGHKSFSVRPG,2.99
15,IRVMVHGRNHTPFLGHESFSVRPG,1.51
16,IRVMVHGRNHTPFLGHGSFSVRPG,3.13
17,IRVMVHGRNHTPFLGHLSFSVRPG,3.67
18,IRVMVHGRNHTPFLGHYSFSVRPG,4.62
19,IRVMVHGRNHTPFLGHVSFSVRPG,2.27
20,IRVMVHGRNHTPFLGHTSFSVRPG,1.89
21,IRVMVHGRNHTPFLGHPSFSVRPG,2.38
22,IRVMVHGANHTPFLGHHSFSVRPG,2.25
23,IRVMVHGHNHTPFLGHHSFSVRPG,3.06
24,IRVMVHGENHTPFLGHHSFSVRPG,2.47

row,Variant,protein stability index
1,IRVMVHGRNHTPFLVHHSFSVRPG,4.3
2,IRVMVHGRNHTPFLTHHSFSVRPG,1.88
3,IRVMVHGRNHTPFLEHHSFSVRPG,4.06
4,IRVMVHGRNHTPFLQHHSFSVRPG,1.54
5,IRVMVHGRNHTPFLGSHSFSVRPG,2.26
6,IRVMVHGRNHTPFLGLHSFSVRPG,3.83
7,IRVMVHGRNHTPFLGQHSFSVRPG,3.16
8,IRVMVHGRNHTPFLGHHSFTVRPG,2.59
9,IRVMVHGRNHTPFLGHHSFNVRPG,1.84
10,IRVMVHGRNHTPFLGHHSFIVRPG,2.92
11,IRVMVHGRNHTPFLGHHSFKVRPG,2.98
12,IRVMQHGRNHTPFLGHHSFSVRPG,1.87
13,IRVMTHGRNHTPFLGHHSFSVRPG,1.89
14,IRVMEHGRNHTPFLGHHSFSVRPG,2.64
15,IRVMMHGRNHTPFLGHHSFSVRPG,3.81
16,IRVMSHGRNHTPFLGHHSFSVRPG,1.21
17,IRVMNHGRNHTPFLGHHSFSVRPG,1.66
18,IRVMPHGRNHTPFLGHHSFSVRPG,2.12
19,IRVMGHGRNHTPFLGHHSFSVRPG,2.89
20,IRVMAHGRNHTPFLGHHSFSVRPG,2.48
21,IRVMHHGRNHTPFLGHHSFSVRPG,2.32
22,IRVMDHGRNHTPFLGHHSFSVRPG,1.1
